The values that follow come from IntAct's records for PubMed 22068056.

B1: SWI/SNF-related matrix-associated actin-dependent regulator of chromatin subfamily D member 3 (Mus musculus), Q6P9Z1 (parent)
chain: MAADEVAGGARKATKSKLFEFLVHGVRPGMPSGARMPHQGAPMGPPGSPYMGSPAVRPGLAPAGMEPARKRAAPPPGQSQAQGQGQPVPTAPARSRSAKRRKMADKILPQRIRELVPESQAYMDLLAFERKLDQTIMRKRVDIQEALKRPMKQKRKLRLYISNTFNPAKPDAEDSDGSIASWELRVEGKLLDDPSKQKRKFSSFFKSLVIELDKDLYGPDNHLVEWHRTPTTQETDGFQVKRPGDLSVRCTLLLMLDYQPPQFKLDPRLARLLGLHTQSRSAIVQALWQYVKTNRLQDSHDKEYINGDKYFQQIFDCPRLKFSEIPQRLTALLLPPDPIVINHVISVDPSDQKKTACYDIDVEVEEPLKGQMSSFLLSTANQQEISALDSKIHETIESINQLKIQRDFMLSFSRDPKGYVQDLLRSQSRDLKVMTDVAGNPEEERRAEFYHQPWSQEAVSRYFYCKIQQRRQELEQSLVVRNT

This assay covers variants of B1. To be noted: with smca4_mouse Smarca4, Q3TKT4.
smca4_mouse Smarca4, Q3TKT4, sequence (Q3TKT4 whole entry): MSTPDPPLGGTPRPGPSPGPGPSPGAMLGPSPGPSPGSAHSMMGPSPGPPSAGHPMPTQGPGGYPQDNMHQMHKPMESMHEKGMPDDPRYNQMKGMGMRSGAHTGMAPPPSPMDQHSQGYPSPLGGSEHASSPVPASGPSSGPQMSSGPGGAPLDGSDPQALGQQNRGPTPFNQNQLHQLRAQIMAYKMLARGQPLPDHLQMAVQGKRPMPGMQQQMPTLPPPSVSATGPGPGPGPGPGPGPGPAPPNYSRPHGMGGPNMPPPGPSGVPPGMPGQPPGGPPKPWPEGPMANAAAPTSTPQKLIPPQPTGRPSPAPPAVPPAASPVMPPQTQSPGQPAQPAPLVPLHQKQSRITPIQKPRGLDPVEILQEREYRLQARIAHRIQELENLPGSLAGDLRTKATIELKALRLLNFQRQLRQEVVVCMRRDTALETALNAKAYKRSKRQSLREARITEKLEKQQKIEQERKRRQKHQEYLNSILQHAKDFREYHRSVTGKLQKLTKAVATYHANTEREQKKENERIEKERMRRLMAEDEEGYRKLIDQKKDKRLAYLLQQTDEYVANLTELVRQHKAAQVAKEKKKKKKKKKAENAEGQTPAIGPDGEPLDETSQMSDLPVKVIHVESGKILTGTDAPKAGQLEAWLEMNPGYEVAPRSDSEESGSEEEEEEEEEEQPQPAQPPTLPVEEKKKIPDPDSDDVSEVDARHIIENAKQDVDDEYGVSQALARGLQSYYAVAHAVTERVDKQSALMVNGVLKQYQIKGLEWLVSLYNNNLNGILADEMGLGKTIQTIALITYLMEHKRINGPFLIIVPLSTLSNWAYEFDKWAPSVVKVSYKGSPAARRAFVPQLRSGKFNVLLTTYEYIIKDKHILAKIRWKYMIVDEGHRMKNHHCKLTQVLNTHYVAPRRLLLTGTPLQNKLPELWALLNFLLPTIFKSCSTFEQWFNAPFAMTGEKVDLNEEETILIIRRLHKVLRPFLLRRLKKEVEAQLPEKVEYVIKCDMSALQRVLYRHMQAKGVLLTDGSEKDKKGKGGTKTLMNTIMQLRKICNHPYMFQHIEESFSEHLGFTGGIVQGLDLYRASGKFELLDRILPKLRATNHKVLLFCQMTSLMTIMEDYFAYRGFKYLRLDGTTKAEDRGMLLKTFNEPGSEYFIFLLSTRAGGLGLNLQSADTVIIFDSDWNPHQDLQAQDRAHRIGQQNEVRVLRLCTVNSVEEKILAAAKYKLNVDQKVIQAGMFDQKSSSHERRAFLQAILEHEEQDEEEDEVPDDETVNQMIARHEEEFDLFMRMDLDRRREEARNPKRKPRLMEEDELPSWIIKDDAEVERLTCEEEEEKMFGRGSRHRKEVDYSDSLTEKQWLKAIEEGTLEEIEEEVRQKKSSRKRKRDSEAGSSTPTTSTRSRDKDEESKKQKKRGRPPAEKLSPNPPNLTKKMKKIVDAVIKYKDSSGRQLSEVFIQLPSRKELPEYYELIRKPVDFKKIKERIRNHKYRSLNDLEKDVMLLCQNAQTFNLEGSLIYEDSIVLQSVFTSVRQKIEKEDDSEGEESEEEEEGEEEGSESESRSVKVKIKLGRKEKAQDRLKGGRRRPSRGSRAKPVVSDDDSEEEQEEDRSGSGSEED
With T229A, the “effect of a mutation on the interaction” value was “disrupting interaction”.
